Laboratory results from publication PMC12880746.

Columns and labels:
[1] = target: CspA-His6 (Clostridioides difficile); test: SEC; individually Ni-affinity-purified Csp-His6 proteins on Superdex 200 Increase 10/300 GL; 200 mM NaCl, 10 mM Tris-HCl pH 7.5, 5% glycerol, 1 mM dithiothreitol; apparent MW from gel filtration standard
[2] = target: CspB-His6 (Clostridioides difficile); test: as above
[3] = target: CspC-CPD-His6 (Clostridioides difficile); test: SEC; elution fraction of a CspC-CPD-His6:CspA co-affinity purification (proteins co-expressed in E. coli) on Superdex 200 Increase 10/300 GL; 200 mM NaCl, 10 mM Tris-HCl pH 7.5, 5% glycerol, 1 mM dithiothreitol; fractions on SDS-PAGE; complex peak re-run on SEC; also run with TA and CaCl2 without difference

Substance: CspA-His6 (domain or fragment)
- stoichiometry N [1]: 2

Substance: CspB-His6 (domain or fragment)
- stoichiometry N [2]: 2

Substance: untagged CspA (CspA_(583-1132)) (domain or fragment)
- stoichiometry N (ratio CspA:CspC-CPD-His6) [3]: 1
